Data set [1] has as its target T1, AbdA (Hox);Exd/Hth-HM (Drosophila melanogaster?;Drosophila …, UniProt P29555;P40427;O46339 261-590;1-376;127-211, |). Put plainly: EMSA; EMSA, 20 ul, 30 min, room temperature; 5X buffer as printed: 20% glycerol, 1 mg/ml BSA, 2.5 mM EDTA, '50mM 1M tris' pH 7.5, 50 mM KCl, 5 mM MgCl2, 2.5 mM DTT, 90 ug/ml poly(dI-dC); proteins 100-200 ng. Particulars: protein: recombinant;recombinant; tags: 6xHis;6xHis; copies: 1;1;1. Background: A gel shift assay detects complexes by their altered migration in electrophoresis.

Data set [2] has as its target T2, AbdA (Hox);Exd/Hth-HM;Grh (Drosophila melanogaster?;Drosophila …, UniProt P29555;P40427;O46339;P13002 261-590;1-376;127-211;551-1333, ||). The data set is described as above. Particulars: protein: recombinant;recombinant;recombinant; tags: 6xHis;6xHis;6xHis; copies: 1;1;1;2.
Target sequence in this assay (P29555 261-590, chain 1 of 4, one chain of several): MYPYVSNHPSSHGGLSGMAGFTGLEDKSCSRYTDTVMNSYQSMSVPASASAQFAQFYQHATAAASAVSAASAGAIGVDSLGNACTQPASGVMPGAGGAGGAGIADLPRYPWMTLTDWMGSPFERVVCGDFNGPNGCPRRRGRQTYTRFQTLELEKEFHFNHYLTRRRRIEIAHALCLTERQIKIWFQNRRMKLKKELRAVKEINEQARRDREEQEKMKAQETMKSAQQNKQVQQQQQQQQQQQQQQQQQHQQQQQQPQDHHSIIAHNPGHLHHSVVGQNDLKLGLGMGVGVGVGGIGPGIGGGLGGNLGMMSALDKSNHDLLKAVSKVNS
Target sequence in this assay (P13002 551-1333, chain 4 of 4, one chain of several): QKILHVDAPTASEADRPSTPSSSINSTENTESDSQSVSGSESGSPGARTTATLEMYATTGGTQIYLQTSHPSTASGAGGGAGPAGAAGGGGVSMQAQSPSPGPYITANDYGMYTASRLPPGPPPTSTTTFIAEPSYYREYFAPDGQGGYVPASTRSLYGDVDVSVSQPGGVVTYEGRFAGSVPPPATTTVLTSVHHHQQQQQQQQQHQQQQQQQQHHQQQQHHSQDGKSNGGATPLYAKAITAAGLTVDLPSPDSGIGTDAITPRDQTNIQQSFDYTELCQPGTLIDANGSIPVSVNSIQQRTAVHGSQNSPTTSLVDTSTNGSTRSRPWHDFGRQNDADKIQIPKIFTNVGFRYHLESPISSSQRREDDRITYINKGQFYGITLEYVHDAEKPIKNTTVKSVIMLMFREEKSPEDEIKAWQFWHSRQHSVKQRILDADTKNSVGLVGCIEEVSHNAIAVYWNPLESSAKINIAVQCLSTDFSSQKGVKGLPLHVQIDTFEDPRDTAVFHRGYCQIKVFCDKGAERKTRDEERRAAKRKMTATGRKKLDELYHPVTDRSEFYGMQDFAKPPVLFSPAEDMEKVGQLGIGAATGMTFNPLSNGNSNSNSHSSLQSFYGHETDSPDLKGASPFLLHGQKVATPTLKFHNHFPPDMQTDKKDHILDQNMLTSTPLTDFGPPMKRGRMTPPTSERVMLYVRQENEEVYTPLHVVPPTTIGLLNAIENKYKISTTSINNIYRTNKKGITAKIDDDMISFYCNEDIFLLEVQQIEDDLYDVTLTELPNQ
Data set [3] deals with T3, Grh (UniProt P13002 551-1333). Described as above. Particulars: protein: recombinant; tags: 6xHis; chain copies: 2.
Data set [4] deals with T3, Grh. Put plainly: EMSA; no significant decrease; EMSA, 20 ul, 30 min, room temperature; 5X buffer as printed: 20% glycerol, 1 mg/ml BSA, 2.5 mM EDTA, '50mM 1M tris' pH 7.5, 50 mM KCl, 5 mM MgCl2, 2.5 mM DTT, 90 ug/ml poly(dI-dC); proteins 100-200 ng. As to conditions: protein: recombinant; tags: 6xHis; chain copies: 2.
Data set [5] concerns the target T2, AbdA (Hox);Exd/Hth-HM;Grh. In words: EMSA; intact; slightly reduced intensity per legend; EMSA, 20 ul, 30 min, room temperature; 5X buffer as printed: 20% glycerol, 1 mg/ml BSA, 2.5 mM EDTA, '50mM 1M tris' pH 7.5, 50 mM KCl, 5 mM MgCl2, 2.5 mM DTT, 90 ug/ml poly(dI-dC); proteins 100-200 ng. As to conditions: protein: recombinant;recombinant;recombinant; tags: 6xHis;6xHis;6xHis; copies: 1;1;1;2.
Target sequence in this assay (P29555 261-590, chain 1 of 2): as the sequence (P29555 261-590, chain 1 of 4, one chain of several) above
Target sequence in this assay (P13002 551-1333, chain 4 of 2): as the sequence (P13002 551-1333, chain 4 of 4, one chain of several) above

The next data set has as its target AbdA (Hox);Grh (Drosophila melanogaster?;Drosophila …, UniProt P29555;P13002 261-590;551-1333, |). In words: EMSA; EMSA, 20 ul, 30 min, room temperature; 5X buffer as printed: 20% glycerol, 1 mg/ml BSA, 2.5 mM EDTA, '50mM 1M tris' pH 7.5, 50 mM KCl, 5 mM MgCl2, 2.5 mM DTT, 90 ug/ml poly(dI-dC); proteins 100-200 ng. As to conditions: protein: recombinant;recombinant; tags: 6xHis;6xHis; copies: 1;2.

The target of data set [6] is T4, Exd/Hth-HM (UniProt P40427;O46339 1-376;127-211).
T4 sequence 1: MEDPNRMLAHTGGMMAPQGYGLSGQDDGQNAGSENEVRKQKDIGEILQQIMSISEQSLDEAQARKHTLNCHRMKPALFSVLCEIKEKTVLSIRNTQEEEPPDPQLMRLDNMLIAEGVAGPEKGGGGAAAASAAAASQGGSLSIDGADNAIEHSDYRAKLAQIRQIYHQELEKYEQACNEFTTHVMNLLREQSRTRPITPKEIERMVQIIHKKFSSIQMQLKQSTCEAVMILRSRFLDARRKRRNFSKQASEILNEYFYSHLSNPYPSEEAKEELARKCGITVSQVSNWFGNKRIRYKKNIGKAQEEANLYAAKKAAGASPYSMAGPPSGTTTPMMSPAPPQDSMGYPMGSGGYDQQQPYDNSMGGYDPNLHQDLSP
T4 sequence 2: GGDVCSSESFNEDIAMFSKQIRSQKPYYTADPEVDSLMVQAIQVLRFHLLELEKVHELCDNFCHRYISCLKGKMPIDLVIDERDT
The data set is described as above. Particulars: protein: recombinant; tags: 6xHis; copies: 1;1.

The target in data set [7] is T5, AbdA (Hox) (UniProt P29555 261-590). The data set is described as above. As to conditions: protein: recombinant; tags: 6xHis.
The target in data set [8] is T5, AbdA (Hox). Put plainly: EMSA; 100 and 200 ng; EMSA, 20 ul, 30 min, room temperature; 5X buffer as printed: 20% glycerol, 1 mg/ml BSA, 2.5 mM EDTA, '50mM 1M tris' pH 7.5, 50 mM KCl, 5 mM MgCl2, 2.5 mM DTT, 90 ug/ml poly(dI-dC); proteins 100-200 ng. Particulars: protein: recombinant; tags: 6xHis.
The target in data set [9] is T4, Exd/Hth-HM. In words: EMSA; 200 ng; another sentence claims strong binding of each protein; EMSA, 20 ul, 30 min, room temperature; 5X buffer as printed: 20% glycerol, 1 mg/ml BSA, 2.5 mM EDTA, '50mM 1M tris' pH 7.5, 50 mM KCl, 5 mM MgCl2, 2.5 mM DTT, 90 ug/ml poly(dI-dC); proteins 100-200 ng. As to conditions: protein: recombinant; tags: 6xHis; copies: 1;1.
Data set [10] has as its target T1, AbdA (Hox);Exd/Hth-HM. In words: EMSA; intact in text; slightly reduced per legend; EMSA, 20 ul, 30 min, room temperature; 5X buffer as printed: 20% glycerol, 1 mg/ml BSA, 2.5 mM EDTA, '50mM 1M tris' pH 7.5, 50 mM KCl, 5 mM MgCl2, 2.5 mM DTT, 90 ug/ml poly(dI-dC); proteins 100-200 ng. As to conditions: protein: recombinant;recombinant; tags: 6xHis;6xHis; copies: 1;1;1.
Target sequence in this assay (P29555 261-590, one chain of several): as the sequence (P29555 261-590, chain 1 of 4, one chain of several) above

T5 sequence (P29555 261-590): as the sequence (P29555 261-590, chain 1 of 4, one chain of several) above
Chain of AbdA (Hox);Grh (P29555 261-590, chain 1 of 2): as the sequence (P29555 261-590, chain 1 of 4, one chain of several) above
Chain of AbdA (Hox);Grh (P13002 551-1333, chain 2 of 2): as the sequence (P13002 551-1333, chain 4 of 4, one chain of several) above
T3 sequence (P13002 551-1333): as the sequence (P13002 551-1333, chain 4 of 4, one chain of several) above

B1: motif-27 (dsDNA)
DNA 1: TATATGTGGAACCACCTTGAAAGTCTACTGCCTGATTAGT
DNA 2: ACTAATCAGGCAGTAGACTTTCAAGGTGGTTCCACATATA
As to B1, the binding result (with AbdA (Hox);Exd/Hth-HM [1]; in data set [2]; with Grh [3]) was “binds” each time.

B2: motif-30 Grh2 mutant (dsDNA)
DNA 1: GAAACAGGATAACGATAACTAATCC
DNA 2: GGATTAGTTATCGTTATCCTGTTTC
B2: the binding result (with Grh [4]; in data set [5]) was “binds” each time.

B3: motif-30 Exd mutant (dsDNA)
DNA 1: GAAACAGGATAACCATAACTGCTCC
DNA 2: GGAGCAGTTATGGTTATCCTGTTTC
With B3, the binding result was “binds” with AbdA (Hox);Grh, “no binding” with AbdA (Hox);Exd/Hth-HM [1], “no binding” in data set [2] and “binds” in the data set with Grh [3].

B4: motif-25 (dsDNA)
DNA 1: CGGGATATCACCAAACCATAGAAAATTTGCGGTACA
DNA 2: TGTACCGCAAATTTTCTATGGTTTGGTGATATCCCG
Consider B4, for which the binding result with AbdA (Hox);Exd/Hth-HM [1] was “binds”; in [2], “no binding”; in the data set with Grh [3] it was “binds”.

B5: motif-33 (dsDNA)
DNA 1: TACTGCCTGATTAGTGTAAATAATTGCCAGTCCTTG
DNA 2: CAAGGACTGGCAATTATTTACACTAATCAGGCAGTA
As for B5, the binding result with Exd/Hth-HM [6] is listed as “binds”; with AbdA (Hox);Grh, “binds”; with AbdA (Hox);Exd/Hth-HM [1], “binds”; in [2], “no binding”; in the data set with Grh [3] it was “binds”; with AbdA (Hox) [7], “binds”.

B6: motif-30 WT (dsDNA)
DNA 1: GAAACAGGATAACCATAACTAATCC
DNA 2: GGATTAGTTATGGTTATCCTGTTTC
As to B6, the binding result with AbdA (Hox) [8] is listed as “binds”; in the data set with AbdA (Hox);Grh, “binds”; with AbdA (Hox);Exd/Hth-HM [1] it was “binds”; in [2], “binds”; in the data set with Grh [3] it was “binds”; with Exd/Hth-HM [9] it was “no binding”.

B7: motif-32 (dsDNA)
DNA 1: TTGCATGTGCGGATATATATATGTGGAACCACCTTG
DNA 2: CAAGGTGGTTCCACATATATATATCCGCACATGCAA
Take B7: the binding result (with Exd/Hth-HM [6]; in the data set with AbdA (Hox);Exd/Hth-HM [1]; in data set [2]; with Grh [3]) was “binds” in each case.

B8: motif-30 Hox1+2 mutant (dsDNA)
DNA 1: GAAACAGGAGAACCAGGACTAATCC
DNA 2: GGATTAGTCCTGGTTCTCCTGTTTC
In the case of B8, the binding result (with AbdA (Hox);Grh; in the data set with AbdA (Hox);Exd/Hth-HM [1]; in data set [2]; in the data set with AbdA (Hox) [7]) was “no binding” throughout.

B9: motif-31 (dsDNA)
DNA 1: ACACAATTTTCTAAGATCCACTGGAATCGGTATGCCGATAGTT
DNA 2: AACTATCGGCATACCGATTCCAGTGGATCTTAGAAAATTGTGT
In the case of B9, the binding result is recorded as “binds” in the data set with AbdA (Hox);Exd/Hth-HM [1], “no binding” in data set [2], “binds” with Grh [3] and “binds” with AbdA (Hox) [7].

B10: motif-29 (Hox-Exd consensus) (dsDNA)
DNA 1: CTCAAGCGCGTGATGAATGTAATCTTCG
DNA 2: CGAAGATTACATTCATCACGCGCTTGAG
For B10, the binding result with AbdA (Hox);Exd/Hth-HM [1] is listed as “binds”; with Grh [3] it was “no binding”.

B11: motif-23 (dsDNA)
DNA 1: CTATTATCACTATTGCTTTGCTTCCTCAAAACCTTCATTCGA
DNA 2: TCGAATGAAGGTTTTGAGGAAGCAAAGCAATAGTGATAATAG
In the case of B11, the binding result with AbdA (Hox);Exd/Hth-HM [1] and in the data set with Grh [3] was “binds” in each case.

B12: motif-28 (dsDNA)
DNA 1: AAGCCGAGCCTGAATCAGGTACTCAAATTGTCGC
DNA 2: GCGACAATTTGAGTACCTGATTCAGGCTCGGCTT
B12: the binding result in the data set with AbdA (Hox);Grh is “binds”; with AbdA (Hox);Exd/Hth-HM [1] it was “binds”; in [2] it was “no binding”; in the data set with Grh [3], “binds”.

B13: motif-30 Hox1 mutant (dsDNA)
DNA 1: GAAACAGGAGAACCATAACTAATCC
DNA 2: GGATTAGTTATGGTTCTCCTGTTTC
As for B13, in the data set with AbdA (Hox);Exd/Hth-HM [10], the binding result is “binds”.

The values are drawn from article PMC5667929, “Combinatorial action of Grainyhead, Extradenticle and Notch in regulating Hox mediated apoptosis in Drosophila larval CNS”.
